Experiments:
[1] = molecular target: TNFRs on MR300 cells (human (endogenous in MR300)); experiment: immunostaining of cells or tissue; competition on adherent MR300 cells (CNGRC-binder): hTNF-Fc (1:50) staining, 1 h at room temperature, Alexa-594 anti-human antibody, with 0.01 to 30 µg/mL unlabeled NGR-hTNF or hTNF; percent of control
[2] = molecular target: CD13 (aminopeptidase N), CNGRC-binder isoform, on HUVEC, mesoangioblasts (MB) and MR300 cells (human (endogenous in HUVEC, MB, MR300)) (UniProt P15144)
Sequence of CD13 (aminopeptidase N), CNGRC-binder isoform, on HUVEC, mesoangioblasts (MB) and MR300 cells (human (endogenous in HUVEC, MB, MR300)) (P15144 whole entry, canonical isoform): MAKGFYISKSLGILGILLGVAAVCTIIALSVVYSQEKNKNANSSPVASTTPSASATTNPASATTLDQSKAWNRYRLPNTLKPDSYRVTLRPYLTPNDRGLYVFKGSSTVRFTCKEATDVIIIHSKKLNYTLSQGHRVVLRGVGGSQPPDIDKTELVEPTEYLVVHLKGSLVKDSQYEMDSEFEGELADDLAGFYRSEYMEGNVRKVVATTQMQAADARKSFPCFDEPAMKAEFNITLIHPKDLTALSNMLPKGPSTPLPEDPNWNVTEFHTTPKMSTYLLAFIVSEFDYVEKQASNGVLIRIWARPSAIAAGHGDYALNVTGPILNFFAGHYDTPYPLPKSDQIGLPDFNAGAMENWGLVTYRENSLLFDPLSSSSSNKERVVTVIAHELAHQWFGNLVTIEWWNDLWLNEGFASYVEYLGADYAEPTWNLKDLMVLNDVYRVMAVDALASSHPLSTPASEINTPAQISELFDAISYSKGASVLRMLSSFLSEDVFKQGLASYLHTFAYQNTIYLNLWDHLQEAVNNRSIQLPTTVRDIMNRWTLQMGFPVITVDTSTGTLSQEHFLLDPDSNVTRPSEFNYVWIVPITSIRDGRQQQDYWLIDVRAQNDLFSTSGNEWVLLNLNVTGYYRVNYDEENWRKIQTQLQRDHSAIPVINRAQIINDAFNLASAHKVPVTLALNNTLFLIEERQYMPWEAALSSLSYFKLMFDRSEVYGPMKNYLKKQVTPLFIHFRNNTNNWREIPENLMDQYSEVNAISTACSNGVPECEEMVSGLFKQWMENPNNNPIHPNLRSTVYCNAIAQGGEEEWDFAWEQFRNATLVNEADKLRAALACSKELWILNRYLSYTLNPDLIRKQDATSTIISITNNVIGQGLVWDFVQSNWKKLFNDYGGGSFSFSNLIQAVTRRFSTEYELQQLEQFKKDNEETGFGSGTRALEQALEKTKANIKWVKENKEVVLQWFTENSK

| IC50 [1] | phosphorylation of Akt-Ser473 in MR300 cells treated with NGR-hTNF in comparison to hTNF (Kinexus phospho-site screen) [2] | phosphorylation of Erk1 in MR300 cells treated with NGR-hTNF in comparison to hTNF (Kinexus phospho-site screen) [2] | phosphorylation of Erk2 in MR300 cells treated with NGR-hTNF in comparison to hTNF (Kinexus phospho-site screen) [2] | Substance |
| --- | --- | --- | --- | --- |
| 20 nM |  |  |  | hTNF (ligand) |
| 5 nM | -36% | -36% | -35% | NGR-hTNF (ligand) |

Reference: article PMC6769691
